This test has as its target interleukin-1 receptor (human (CHO-derived cells) or murine (EL4 cells); not stated which gave the tables) (UniProt P14778). In words: competition with 35S-IL-1Ra on IL-1 receptor cells, Kd=IC50/2.

Data on one substance can be found in patent US20150183847A1.

Turning to “wild-type human IL-1Ra (from UniProt P18510 26-177)”, the Kd (as a rule, the free concentration of one partner at which half of the binding sites on the other are occupied at equilibrium, for simple one-to-one binding) was 0.15 to 0.4 nM.
